Experimental data reported in patent publication US20080038731.

What was measured:
[1] = target: T1, IkBα, P25963
T1 chain: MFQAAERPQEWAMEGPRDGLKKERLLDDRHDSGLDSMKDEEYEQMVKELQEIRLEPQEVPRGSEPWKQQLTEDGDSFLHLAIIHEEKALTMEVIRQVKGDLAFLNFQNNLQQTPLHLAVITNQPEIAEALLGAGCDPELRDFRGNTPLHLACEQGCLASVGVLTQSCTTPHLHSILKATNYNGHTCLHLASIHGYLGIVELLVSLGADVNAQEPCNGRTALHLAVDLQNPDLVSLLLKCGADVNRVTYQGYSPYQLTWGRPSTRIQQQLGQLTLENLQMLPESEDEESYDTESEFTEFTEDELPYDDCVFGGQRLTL

[2] = target: p53, P04637
Chain of p53, P04637 (P04637 whole entry, looked up): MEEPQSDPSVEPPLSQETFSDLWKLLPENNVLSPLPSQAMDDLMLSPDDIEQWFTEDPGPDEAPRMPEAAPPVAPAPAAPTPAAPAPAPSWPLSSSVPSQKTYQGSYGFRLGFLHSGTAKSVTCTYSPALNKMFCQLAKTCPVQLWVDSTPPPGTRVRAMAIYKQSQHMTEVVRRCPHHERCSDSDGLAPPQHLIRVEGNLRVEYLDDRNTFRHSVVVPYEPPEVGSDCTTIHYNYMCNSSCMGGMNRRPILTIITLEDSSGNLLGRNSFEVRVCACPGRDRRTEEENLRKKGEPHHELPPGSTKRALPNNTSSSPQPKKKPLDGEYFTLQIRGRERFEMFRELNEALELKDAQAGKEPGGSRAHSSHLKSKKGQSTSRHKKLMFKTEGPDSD

B1: purified topors (protein)
chain: MGSQPPLGSPLSREEGEAPPPAPASEGRRRSRRVRLRGSCRHRPSFLGCRELAASAPARPAPASSEIMASAAKEFKMDNFSPKAGTSKLQQTVPADASPDSKCPICLDRFDNVSYLDRCLHKFCFRCVQEWSKNKAECPLCKQPFDSIFHSVRAEDDFKEYVLRPSYNGSFVTPDRRFRYRTTLTRERNASVYSPSGPVNRRTTTPPDSGVLFEGLGISTRPRDVEIPQFMRQIAVRRPTTADERSLRKIQEQDIINFRRTLYRAGARVRNIEDGGRYRDISAEFFRRNPACLHRLVPWLKRELTVLFGAHGSLVNIVQHIIMSNVTRYDLESQAFVSDLRPFLLNRTEHFIHEFISFARSPFNMAAFDQHANYDCPAPSYEEGSHSDSSVITISPDEAETQELDINVATVSQAPWDDETPGPSYSSSEQVHVTMSSLLNTSDSSDEELVTGGATSQIQGVQTNDDLNNDSDDSSDNCVIVGFVKPLAERTPELVELSSDSEDLGSYEKMETVKTQEQEQSYSSGDSDVSRCSSPHSVLGKDEQINKGHCDSSTRIKSKKEEKRSTSLSSPRNLNSSVRGDRVYSPYNHRHRKRGRSRSSDSRSQSRSGHDQKNHRKHHGKKRMKSKRSRSRESSRPRGRRDKKRSRTRDSSWSRRSQTLSLSSESTSRSRSRSSDHGKRRSRSRNRDRYYLRNNYGSRYKWEYTYYSRNKDRDGYESSYRRRTLSRAHYSRQSSSPEFRVQSFSERTNARKKNNHSERKYYYYERHRSRSLSSNRSRTASTGTDRVRNEKPGGKRKYKTRHLEGTNEVAQPSREFASKAKDSHYQKSSSKLDGNYKNESDTFSDSRSSDRETKHKRRKRKTRSLSVEIVYEGKATDTTKHHKKKKKKHKKKHKKHHGDNASRSPVVITIDSDSDKDSEVKEDTECDNSGPQDPLQNEFLAPSLEPFETKDVVTIEAEFGVLDKECDIATLSNNLNNANKTVDNIPPLAASVEQTLDVREESTFVSDLENQPSNIVSLQTEPSRQLPSPRTSLMSVCLGRDCDMS
sumoylation of IkBα in vitro [1]: Topors also activates sumoylation of p53, but not IkBα
sumoylation of p53 in vitro [2]: Topors also activates sumoylation of p53, but not IkBα
